Reference: US20130123350, “NUCLEIC ACID MOLECULE CAPABLE OF BINDING TO c-MET AND USE THEREOF” (KANAGAWA PREFECTURAL HOSPITAL ORGANIZATION, published 2013)

B1: g10 2'-F (ssRNA)
RNA: GGGACGCUCACGUACGCUAAACACAGCUCUGAUGGUCGUGAUUAGGUUGACCACCUACCUUCAGUGCCUGGACGUGCAGU
modifications: 2'-F on all C and U
B2: g34 2'-F (ssRNA)
RNA: GGGACGCUCACGUACGCUAAUUUGGUGAAUUCCGACCAUUUUGCAAACGGGAUACGGGACUCAGUGCCUGGACGUGCAGU
modifications: 2'-F on all C and U
B3: g8 2'-F (ssRNA)
RNA: GGGACGCUCACGUACGCUAAGGGCACUUAAAACCAGACCGUGAUUUGCGGUUGGUCUCGCUCAGUGCCUGGACGUGCAGU
modifications: 2'-F on all C and U
B4: g6 2'-F (ssRNA)
RNA: GGGACGCUCACGUACGCUAAUCCAGGUGUGGCGAGCCACUGUAAGAGUCGCCGUGAGGAUUCAGUGCCUGGACGUGCAGU
modifications: 2'-F on all C and U
B5: g11 2'-F (ssRNA)
RNA: GGGACGCUCACGUACGCUAAGUUUAGGUGGCAUCGACCUUCAUGAAACGGGUGCACAGGCUCAGUGCCUGGACGUGCAGU
modifications: 2'-F on all C and U
B6: g28 2'-F (ssRNA)
RNA: GGGACGCUCACGUACGCUAACCUGGGGGUUCCGCAGGAAUCGGGAACUAGAUUGGUGGUCUCAGUGCCUGGACGUGCAGU
modifications: 2'-F on all C and U
B7: g23 2'-F (ssRNA)
RNA: GGGACGCUCACGUACGCUAAAUGGGAGUGCGCCUCGGCUCUAACGGAGGUAUGCACGUCAUCAGUGCCUGGACGUGCAGU
modifications: 2'-F on all C and U
B8: g24 2'-F (ssRNA)
RNA: GGGACGCUCACGUACGCUAAGAGUUGUCGCACAGCGACUCGAAAAUAAUCUGUCCGACACUCAGUGCCUGGACGUGCAGU
modifications: 2'-F on all C and U
B9: g17 2'-F (ssRNA)
RNA: GGGACGCUCACGUACGCUAAAGUGAUGGCCGGCUGGAGAAACGGGCCACUCGAUCCAGGUCAGUGCCUGGACGUGCAGU
modifications: 2'-F on all C and U
B10: g32 2'-F (ssRNA)
RNA: GGGACGCUCACGUACGCUAAACAAGACCGGGAUGGGGGUUGGUCACACACAAAGACUGAAUCAGUGCCUGGACGUGCAGU
modifications: 2'-F on all C and U
B11: g31 2'-F (ssRNA)
RNA: GGGACGCUCACGUACGCUAAAGAGUCUAUGCCGUGAGUGAGGGUGGCGCCUCGACUGCCAUCAGUGCCUGGACGUGCAGU
modifications: 2'-F on all C and U
B12: g18 2'-F (ssRNA)
RNA: GGGACGCUCACGUACGCUAAGGCACCCUAUAGGAUUCAGCCCCUAACCCGGUGUUGUGAAUCAGUGCCUGGACGUGCAGU
modifications: 2'-F on all C and U
B13: g36 2'-F (ssRNA)
RNA: GGGACGCUCACGUACGCUAACUUGAUUGGUCGCAACCGGACAAGGACGGGUUGAUGCAGUUCAGUGCCUGGACGUGCAGU
modifications: 2'-F on all C and U
B14: g21 2'-F (ssRNA)
RNA: GGGACGCUCACGUACGCUAACCUUGGUGUCAUCCGACCAAAUUAGAACGGGAUGAGGAAGUCAGUGCCUGGACGUGCAGU
modifications: 2'-F on all C and U
B15: g37 2'-F (ssRNA)
RNA: GGGACGCUCACGUACGCUAAGGUUUGCUCCGACCGACUAAAGGGAGCCUCUGUCACGAGUUCAGUGCCUGGACGUGCAGU
modifications: 2'-F on all C and U
B16: g19 2'-F (ssRNA)
RNA: GGGACGCUCACGUACGCUAAGUAGCCGUGAUUGGGUUGGCUGCCCACAAUUAUCCAGGACUCAGUGCCUGGACGUGCAGU
modifications: 2'-F on all C and U
B17: g13 2'-F (ssRNA)
RNA: GGGACGCUCACGUACGCUAAUCACUCGGACAGCCGGAGCGAAACGGGCUGUGUAAGACUGUCAGUGCCUGGACGUGCAGU
modifications: 2'-F on all C and U
B18: g14 2'-F (ssRNA)
RNA: GGGACGCUCACGUACGCUAAUCAUCGGGACAUCGGAUGGAACGGGUGUCAAGAAGCGUGUUCAGUGCCUGGACGUGCAGU
modifications: 2'-F on all C and U
B19: g16 2'-F (ssRNA)
RNA: GGGACGCUCACGUACGCUAACCGCUACCGGGUGCAACGGGUAGACUGUAACCAGGUGAUAUCAGUGCCUGGACGUGCAGU
modifications: 2'-F on all C and U
B20: g27 2'-F (ssRNA)
RNA: GGGACGCUCACGUACGCUAACCUAUGCAGACCGACAUCCGGGUAUACGGGAUGAUGCGACUCAGUGCCUGGACGUGCAGU
modifications: 2'-F on all C and U
B21: g33 2'-F (ssRNA)
RNA: GGGACGCUCACGUACGCUAAACUUUUGGCGAUCUCCGGCCGGAUACGGGAGAACGAGGUAUCAGUGCCUGGACGUGCAGU
modifications: 2'-F on all C and U
B22: g22 2'-F (ssRNA)
RNA: GGGACGCUCACGUACGCUAAGCGUGUUUCUUCAUUUCGACGCUGGCCAACGGAAAUGCAAUCAGUGCCUGGACGUGCAGU
modifications: 2'-F on all C and U
B23: g2 2'-F (ssRNA)
RNA: GGGACGCUCACGUACGCUAAACCCUGGCGAUCUCCGGCCGGAUACGGGAGAACGAGGUACUCAGUGCCUGGACGUGCAGU
modifications: 2'-F on all C and U
B24: g12 2'-F (ssRNA)
RNA: GGGACGCUCACGUACGCUAACGCGGCCAUCCGGCGUUUGGAACGGGAUGUACACCUGACAUCAGUGCCUGGACGUGCAGU
modifications: 2'-F on all C and U
B25: g15 2'-F (ssRNA)
RNA: GGGACGCUCACGUACGCUAAGACGCGGGCCACCGGCUAGCGACGGGUGGUAAAGGGCUUGUCAGUGCCUGGACGUGCAGU
modifications: 2'-F on all C and U
B26: g5 2'-F (ssRNA)
RNA: GGGACGCUCACGUACGCUAAGCCCAACGAACAUUUUGAGUUUCCAGGCAGCUCAUAGACAUCAGUGCCUGGACGUGCAGU
modifications: 2'-F on all C and U
B27: g26 2'-F (ssRNA)
RNA: GGGACGCUCACGUACGCUAAGCUCCACCAGGUGUAGCUAGCCUGUAGACAUCAGUAGCAUCAGUGCCUGGACGUGCAGU
modifications: 2'-F on all C and U
B28: g20 2'-F (ssRNA)
RNA: GGGACGCUCACGUACGCUAAACGUUGUGGCGAACUUCGGCCCGAACGGGAGUAACUGCAUCAGUGCCUGGACGUGCAGU
modifications: 2'-F on all C and U
B29: g3 2'-F (ssRNA)
RNA: GGGACGCUCACGUACGCUAAGGGCGAAACUGUCGUGACACGGUUUGACAUGCCGGCCUUAUCAGUGCCUGGACGUGCAGU
modifications: 2'-F on all C and U
B30: g7 2'-F (ssRNA)
RNA: GGGACGCUCACGUACGCUAACUUGAAGUCAAGGGUAGAGUGACCAUGCAGCUCGUAGACAUCAGUGCCUGGACGUGCAGU
modifications: 2'-F on all C and U
B31: g1 2'-F (ssRNA)
RNA: GGGACGCUCACGUACGCUAAACACACUGAGAGUUUGACCAGCUAUUAAAUGGGUCGUGACUCAGUGCCUGGACGUGCAGU
modifications: 2'-F on all C and U
B32: g35 2'-F (ssRNA)
RNA: GGGACGCUCACGUACGCUAAGAUUUGUGUGAUACCCGACACUCUAACGGGGUAGCAGGGCUCAGUGCCUGGACGUGCAGU
modifications: 2'-F on all C and U
B33: g4 2'-F (ssRNA)
RNA: GGGACGCUCACGUACGCUAAUACCGUGAUUCGGGGUGGUAUCCGGUGGACAUCCAGGUCGUCAGUGCCUGGACGUGCAGU
modifications: 2'-F on all C and U
B34: g9 2'-F (ssRNA)
RNA: GGGACGCUCACGUACGCUAAGAUGUCUCAAUUGGUCGUGAUUGUGCUGACCACACGAACCUCAGUGCCUGGACGUGCAGU
modifications: 2'-F on all C and U
B35: g30 2'-F (ssRNA)
RNA: GGGACGCUCACGUACGCUAAAAAUUGCCGGGAUCUGGUGUGGCGACCAUGCGGCGUGCAUUCAGUGCCUGGACGUGCAGU
modifications: 2'-F on all C and U
B36: g10 (ssRNA)
RNA: GGGACGCUCACGUACGCUAAACACAGCUCUGAUGGUCGUGAUUAGGUUGACCACCUACCUUCAGUGCCUGGACGUGCAGU
B37: g11 (ssRNA)
RNA: GGGACGCUCACGUACGCUAAGUUUAGGUGGCAUCGACCUUCAUGAAACGGGUGCACAGGCUCAGUGCCUGGACGUGCAGU

What follows are binders tested against T1, rec-cMet (Recombinant Human HGF R/c-MET/Fc Chimera) (Homo sapiens, UniProt P08581;P08581 SEQ:1-283,SEQ:1-625) (assay: SPR; rec-cMet 60 nM). Conditions: tags: C-terminal HIEGRMD linker, human IgG Fc (100-330), 6xHis; R&D Systems; chain copies: 2 (inferred, Fc chimera).
Procedure: (§1) Using these truncated RNA aptamers, the binding ability thereof to the rec-cMet was examined. The binding ability was analyzed using BIACORE (registered trademark) X (GE Healthcare) in accordance with its instructions for use, with the concentration of the rec-cMet being set to 175 nmol/L. Also, the binding ability of each of the RNA aptamers g1 and g1-trA was examined in the same manner. As a comparative example, the 40N was used, and the binding ability thereof was examined in the same manner.
(§2) The binding ability of each of the RNA aptamers to the rec-cMet was examined in the same manner as in Example 5, except that the fluorinated RNA aptamers were used. The concentration of the rec-cMet was set to 60 nmol/L. With the time point at which the introduction of the rec-cMet to the chip was started being 0 seconds, introduction of a buffer was started 60 seconds later. As a comparative example, the same negative control as in Example 6 was used.

T1 sequence (P08581 25-307, stated change not applied, chain 1 of 2): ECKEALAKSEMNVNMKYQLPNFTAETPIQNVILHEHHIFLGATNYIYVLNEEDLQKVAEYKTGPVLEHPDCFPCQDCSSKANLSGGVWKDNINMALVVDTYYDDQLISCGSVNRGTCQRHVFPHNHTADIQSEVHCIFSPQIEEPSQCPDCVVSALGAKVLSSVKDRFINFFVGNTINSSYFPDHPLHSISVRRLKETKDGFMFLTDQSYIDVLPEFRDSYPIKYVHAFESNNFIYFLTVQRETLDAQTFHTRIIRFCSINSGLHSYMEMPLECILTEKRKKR
T1 sequence (P08581 308-932, stated change not applied, chain 2 of 2): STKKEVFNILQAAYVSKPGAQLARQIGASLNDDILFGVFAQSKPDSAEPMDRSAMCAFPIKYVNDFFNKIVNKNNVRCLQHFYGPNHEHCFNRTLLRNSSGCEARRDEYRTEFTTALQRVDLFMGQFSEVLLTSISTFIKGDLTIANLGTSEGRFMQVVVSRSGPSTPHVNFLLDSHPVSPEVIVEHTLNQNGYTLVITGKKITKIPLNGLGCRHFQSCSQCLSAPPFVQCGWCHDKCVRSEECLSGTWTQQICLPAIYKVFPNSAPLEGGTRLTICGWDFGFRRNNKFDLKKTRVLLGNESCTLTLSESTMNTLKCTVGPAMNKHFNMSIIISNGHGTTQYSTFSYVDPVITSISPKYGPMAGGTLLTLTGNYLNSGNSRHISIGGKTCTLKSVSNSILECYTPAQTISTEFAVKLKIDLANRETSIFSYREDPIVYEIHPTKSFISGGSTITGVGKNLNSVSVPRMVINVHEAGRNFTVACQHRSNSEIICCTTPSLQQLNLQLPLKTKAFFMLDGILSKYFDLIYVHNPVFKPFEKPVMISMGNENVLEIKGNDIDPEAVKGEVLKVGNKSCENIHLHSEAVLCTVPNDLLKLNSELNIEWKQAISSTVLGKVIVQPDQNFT

Binding result, binds:
B1, B2, B3, B4, B5, B6, B7, B8, B9, B10, B11, B12, B13, B14, B15, B16, B17, B18, B19, B20, B21, B22, B23, B24, B25, B26, B27, B28, B29, B30, B31, B32, B33, B34, B35

What follows are binders tested against T1, rec-cMet (Recombinant Human HGF …) (assay: SPR; rec-cMet 100 nM). Conditions: tags: C-terminal HIEGRMD linker, human IgG Fc (100-330), 6xHis; R&D Systems; chain copies: 2 (inferred, Fc chimera).
Procedure: as §1
as §2, with “the above” for “the fluorinated”, “to 100” for “to 60”, “later.” for “later. As a comparative example, the same negative control as in Example 6 was used.”

Binding result, binds:
B36, B37
